Tests used:
Experiment in all cases: site-directed spin labelling EPR
[1] = target: SET/TAF-Iβ E243C mutant, MTSL spin-labelled (UniProt Q01105-2 1-277, E243C, MTSL nitroxide spin label on Cys243)
[2] = target: SET/TAF-Iβ D260C mutant, MTSL spin-labelled (UniProt Q01105-2 1-277, D260C, MTSL nitroxide spin label on Cys260)
[3] = target: SET/TAF-Iβ D226C mutant, MTSL spin-labelled (UniProt Q01105-2 1-277, D226C, MTSL nitroxide spin label on Cys226)

binding result [1]: binds
binding result [2]: binds
binding result [3]: binds
B1: wild-type cytochrome c (natural protein)
chain: not shown
modifications: heme group (assembled by co-expressed yeast heme lyase); reduced state in ITC and EPR

Source: PMC11301353 (iScience, 2024)
